No end group written: not given here.
How the values were obtained:
Details in all cases: both partners purified
[1] = biological target: T1, MalFGK2 ABC transporter (maltose transporter), His-tagged (UniProt P02916 1-514; P68183 1-296; P68187 1-371); experiment: SDS-PAGE densitometry of gel-filtered peptidiscs; peptidiscs made on-column, one more gel filtration to remove free NSPr; 15% SDS-PAGE, Coomassie fluorescence of the NSPr band against a standard curve of NSPr; triplicate gels
T1 construct: also called MalGFK2
T1 sequence (P02916 whole entry, chain 1 of 3): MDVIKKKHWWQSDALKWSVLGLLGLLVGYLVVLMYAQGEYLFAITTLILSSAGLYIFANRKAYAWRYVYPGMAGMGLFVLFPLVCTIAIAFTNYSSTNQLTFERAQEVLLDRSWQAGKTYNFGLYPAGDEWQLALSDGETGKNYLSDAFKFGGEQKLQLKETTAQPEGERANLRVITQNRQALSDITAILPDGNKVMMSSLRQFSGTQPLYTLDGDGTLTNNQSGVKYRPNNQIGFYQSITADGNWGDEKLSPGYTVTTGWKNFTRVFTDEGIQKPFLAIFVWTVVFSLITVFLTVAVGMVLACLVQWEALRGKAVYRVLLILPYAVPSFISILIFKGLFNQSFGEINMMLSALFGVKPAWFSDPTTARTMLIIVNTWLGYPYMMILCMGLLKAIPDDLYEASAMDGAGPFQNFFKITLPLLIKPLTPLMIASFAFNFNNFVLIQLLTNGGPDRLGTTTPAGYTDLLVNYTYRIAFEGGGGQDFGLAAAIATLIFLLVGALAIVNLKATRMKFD
T1 sequence (P68183 whole entry, chain 2 of 3): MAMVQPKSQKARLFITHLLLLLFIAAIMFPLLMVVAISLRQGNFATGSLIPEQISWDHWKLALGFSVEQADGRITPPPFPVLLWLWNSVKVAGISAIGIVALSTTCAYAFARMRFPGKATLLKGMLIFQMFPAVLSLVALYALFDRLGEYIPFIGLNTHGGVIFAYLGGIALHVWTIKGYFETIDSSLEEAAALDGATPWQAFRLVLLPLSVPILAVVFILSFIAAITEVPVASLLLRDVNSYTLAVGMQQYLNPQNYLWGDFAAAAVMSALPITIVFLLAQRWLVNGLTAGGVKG
T1 sequence (P68187 whole entry, chain 3 of 3): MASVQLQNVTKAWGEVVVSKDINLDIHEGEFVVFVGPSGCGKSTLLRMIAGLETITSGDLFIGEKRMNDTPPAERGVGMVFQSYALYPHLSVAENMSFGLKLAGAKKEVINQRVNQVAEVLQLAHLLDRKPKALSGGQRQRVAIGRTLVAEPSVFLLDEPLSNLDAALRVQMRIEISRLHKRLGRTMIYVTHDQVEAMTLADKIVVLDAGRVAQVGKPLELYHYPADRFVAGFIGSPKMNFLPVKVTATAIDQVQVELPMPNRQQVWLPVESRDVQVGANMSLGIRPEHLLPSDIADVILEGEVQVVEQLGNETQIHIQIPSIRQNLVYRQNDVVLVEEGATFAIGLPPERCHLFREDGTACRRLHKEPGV

[2] = biological target: Photosynthetic bacterial reaction center (BRC) from Rhodobacter sphaeroides, His-tagged (Rhodobacter sphaeroides, UniProt P0C0Y8 1-282; P0C0Y9 1-308; P0C0Y7 1-260); experiment: as above
[3] = biological target: T2, Colicin M, His-tagged (UniProt P05820 1-271); experiment: native gel or EMSA; about 2 µg FhuA in peptidisc incubated with TonB23-329 (2 µg) or ColM (5 µg), with or without ferricrocin, 5 min at room temperature; CN-PAGE, Coomassie; free TonB and ColM do not migrate
T2 construct: colicin M; Construct as in Mills et al., 2014; also called ColM; source: E. coli BW25113, plasmid pMLD189, purified
T2 sequence: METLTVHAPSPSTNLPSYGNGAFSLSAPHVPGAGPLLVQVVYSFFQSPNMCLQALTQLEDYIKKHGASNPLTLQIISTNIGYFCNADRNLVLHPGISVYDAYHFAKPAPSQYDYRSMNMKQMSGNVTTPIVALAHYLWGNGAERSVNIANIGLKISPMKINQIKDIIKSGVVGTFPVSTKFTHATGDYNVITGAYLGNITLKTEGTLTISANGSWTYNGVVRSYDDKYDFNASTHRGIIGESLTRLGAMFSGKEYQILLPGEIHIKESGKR

[4] = biological target: T3, FhuA receptor, His-tagged (UniProt P06971 34-747); experiment: streptavidin blot quantification of biotinylated peptide in gel-filtered peptidiscs; FhuA reconstituted with NSPrbio; western blot with streptavidin-Alexa 680, against a standard curve
T3 construct: also called FhuA transporter
T3 sequence (looked up): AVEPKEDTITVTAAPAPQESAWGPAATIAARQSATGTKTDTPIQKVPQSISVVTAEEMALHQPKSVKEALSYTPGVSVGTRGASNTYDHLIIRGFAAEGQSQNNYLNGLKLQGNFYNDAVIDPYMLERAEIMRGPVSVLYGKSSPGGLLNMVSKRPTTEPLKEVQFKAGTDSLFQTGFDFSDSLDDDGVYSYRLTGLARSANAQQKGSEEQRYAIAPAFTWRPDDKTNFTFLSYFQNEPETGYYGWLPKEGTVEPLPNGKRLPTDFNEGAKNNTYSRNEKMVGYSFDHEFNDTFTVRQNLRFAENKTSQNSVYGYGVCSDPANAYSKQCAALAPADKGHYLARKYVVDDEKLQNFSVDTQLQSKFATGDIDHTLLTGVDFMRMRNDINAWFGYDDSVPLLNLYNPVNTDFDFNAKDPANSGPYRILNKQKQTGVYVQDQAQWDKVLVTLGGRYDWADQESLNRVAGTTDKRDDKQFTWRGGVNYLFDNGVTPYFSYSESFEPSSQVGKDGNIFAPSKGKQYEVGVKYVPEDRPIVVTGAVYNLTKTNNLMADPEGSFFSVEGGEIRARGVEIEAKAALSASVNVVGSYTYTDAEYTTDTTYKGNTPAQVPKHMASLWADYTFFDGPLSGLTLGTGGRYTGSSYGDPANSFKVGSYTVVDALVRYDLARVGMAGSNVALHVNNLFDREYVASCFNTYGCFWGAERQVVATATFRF

B1: Peptide NSPr (reversed nanodisc scaffold peptide, peptidisc scaffold) (peptide)
peptide: FAEKFKEAVKDYFAKFWDPAAEKLKEAVKDYFAKLWD
notes: also called NSP (used loosely in some legends and methods); source: synthetic peptide; bought: A+ peptide Co. Ltd. and Genscript (purity >80%)
- stoichiometry N [1]: 10 NSPr/disc
- stoichiometry N [2]: 9 NSPr/disc

B2: FhuA reconstituted in peptidisc (FhuA-NSPr) (complex)
chain: T3 sequence (looked up)
peptide: B1 peptide
notes: also called FhuA-peptidisc; FhuA peptidisc; copies: 1 + 10
- binding result [3]: binds

B3: Peptide NSPrbio (NSPr labelled with a biotin group) (peptide)
peptide: B1 peptide
modifications: also: biotin group, position not given here
notes: source: synthetic peptide; bought: KareBay
- stoichiometry N [4]: 10 NSPr/disc

From paper PMC6093710, “The Peptidisc, a simple method for stabilizing membrane proteins in detergent-free solution” (eLife, 2018)
